# In IntAct's records for PubMed 23603394:
# B1: PH and SEC7 domain-containing protein 1 (Homo sapiens), A5PKW4 (parent)
# chain: MAQGAMRFCSEGDCAISPPRCPRRWLPEGPVPQSPPASMYGSTGSLLRRVAGPGPRGRELGRVTAPCTPLRGPPSPRVAPSPWAPSSPTGQPPPGAQSSVVIFRFVEKASVRPLNGLPAPGGLSRSWDLGGVSPPRPTPALGPGSNRKLRLEASTSDPLPARGGSALPGSRNLVHGPPAPPQVGADGLYSSLPNGLGGPPERLATLFGGPADTGFLNQGDTWSSPREVSSHAQRIARAKWEFFYGSLDPPSSGAKPPEQAPPSPPGVGSRQGSGVAVGRAAKYSETDLDTVPLRCYRETDIDEVLAEREEADSAIESQPSSEGPPGTAYPPAPRPGPLPGPHPSLGSGNEDEDDDEAGGEEDVDDEVFEASEGARPGSRMPLKSPVPFLPGTSPSADGPDSFSCVFEAILESHRAKGTSYTSLASLEALASPGPTQSPFFTFELPPQPPAPRPDPPAPAPLAPLEPDSGTSSAADGPWTQRGEEEEAEARAKLAPGREPPSPCHSEDSLGLGAAPLGSEPPLSQLVSDSDSELDSTERLALGSTDTLSNGQKADLEAAQRLAKRLYRLDGFRKADVARHLGKNNDFSKLVAGEYLKFFVFTGMTLDQALRVFLKELALMGETQERERVLAHFSQRYFQCNPEALSSEDGAHTLTCALMLLNTDLHGHNIGKRMTCGDFIGNLEGLNDGGDFPRELLKALYSSIKNEKLQWAIDEEELRRSLSELADPNPKVIKRISGGSGSGSSPFLDLTPEPGAAVYKHGALVRKVHADPDCRKTPRGKRGWKSFHGILKGMILYLQKEEYKPGKALSETELKNAISIHHALATRASDYSKRPHVFYLRTADWRVFLFQAPSLEQMQSWITRINVVAAMFSAPPFPAAVSSQKKFSRPLLPSAATRLSQEEQVRTHEAKLKAMASELREHRAAQLGKKGRGKEAEEQRQKEAYLEFEKSRYSTYAALLRVKLKAGSEELDAVEAALAQAGSTEDGLPPSHSSPSLQPKPSSQPRAQRHSSEPRPGAGSGRRKP
# Variants of: B1
# Details: with arf6_human ARF6, P62330
# arf6_human ARF6, P62330, sequence (P62330 whole entry): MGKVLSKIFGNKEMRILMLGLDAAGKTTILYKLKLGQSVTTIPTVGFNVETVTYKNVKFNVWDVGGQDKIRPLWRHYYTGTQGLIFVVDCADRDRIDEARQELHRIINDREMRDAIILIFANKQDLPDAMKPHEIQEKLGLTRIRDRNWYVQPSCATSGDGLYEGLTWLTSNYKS
row,Variant,effect of a mutation on the interaction
1,R765E,decreasing interaction
2,K766E,decreasing interaction

# Variants of: B1
# Details: with arf6_human ARF6, P62330
# Remark: another data set of the same source
row,Variant,effect of a mutation on the interaction
1,E621K,disrupting interaction

# Variants of: B1
# Details: with arf6_human ARF6, P62330
# Remark: another data set of the same source
row,Variant,effect of a mutation on the interaction
1,E621K,decreasing interaction
